Data reported in PMC2120623.
One block for each molecule: values may come before it.

Key:
Assay in all cases: two-hybrid
[1] = biological target: AP47 in pGBT9 (two-hybrid GAL4 DNA binding domain fusion) (UniProt P35585)
[2] = biological target: αγα chimera in pGBT9 (two-hybrid GAL4 DNA binding domain fusion) (not stated | bovine) (UniProt P17427)
[3] = biological target: AP50 in pGBT9 (two-hybrid GAL4 DNA binding domain fusion) (UniProt P84092)
UniProt P84092, sequence (P84092 whole entry, the tested form may be a part): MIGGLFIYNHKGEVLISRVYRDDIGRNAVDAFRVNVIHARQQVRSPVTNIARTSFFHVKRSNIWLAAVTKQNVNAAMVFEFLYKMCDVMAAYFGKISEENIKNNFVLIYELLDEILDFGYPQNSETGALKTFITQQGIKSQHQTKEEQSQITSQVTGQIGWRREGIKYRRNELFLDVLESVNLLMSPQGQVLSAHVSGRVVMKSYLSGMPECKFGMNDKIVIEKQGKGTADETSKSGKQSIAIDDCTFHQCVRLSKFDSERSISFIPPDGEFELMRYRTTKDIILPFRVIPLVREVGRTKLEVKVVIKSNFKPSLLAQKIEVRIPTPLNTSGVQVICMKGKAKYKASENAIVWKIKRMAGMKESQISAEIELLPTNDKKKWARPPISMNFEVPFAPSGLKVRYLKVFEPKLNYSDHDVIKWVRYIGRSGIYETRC

UniProt P17427, sequence (P17427 whole entry, change not shown, the tested form may be a part): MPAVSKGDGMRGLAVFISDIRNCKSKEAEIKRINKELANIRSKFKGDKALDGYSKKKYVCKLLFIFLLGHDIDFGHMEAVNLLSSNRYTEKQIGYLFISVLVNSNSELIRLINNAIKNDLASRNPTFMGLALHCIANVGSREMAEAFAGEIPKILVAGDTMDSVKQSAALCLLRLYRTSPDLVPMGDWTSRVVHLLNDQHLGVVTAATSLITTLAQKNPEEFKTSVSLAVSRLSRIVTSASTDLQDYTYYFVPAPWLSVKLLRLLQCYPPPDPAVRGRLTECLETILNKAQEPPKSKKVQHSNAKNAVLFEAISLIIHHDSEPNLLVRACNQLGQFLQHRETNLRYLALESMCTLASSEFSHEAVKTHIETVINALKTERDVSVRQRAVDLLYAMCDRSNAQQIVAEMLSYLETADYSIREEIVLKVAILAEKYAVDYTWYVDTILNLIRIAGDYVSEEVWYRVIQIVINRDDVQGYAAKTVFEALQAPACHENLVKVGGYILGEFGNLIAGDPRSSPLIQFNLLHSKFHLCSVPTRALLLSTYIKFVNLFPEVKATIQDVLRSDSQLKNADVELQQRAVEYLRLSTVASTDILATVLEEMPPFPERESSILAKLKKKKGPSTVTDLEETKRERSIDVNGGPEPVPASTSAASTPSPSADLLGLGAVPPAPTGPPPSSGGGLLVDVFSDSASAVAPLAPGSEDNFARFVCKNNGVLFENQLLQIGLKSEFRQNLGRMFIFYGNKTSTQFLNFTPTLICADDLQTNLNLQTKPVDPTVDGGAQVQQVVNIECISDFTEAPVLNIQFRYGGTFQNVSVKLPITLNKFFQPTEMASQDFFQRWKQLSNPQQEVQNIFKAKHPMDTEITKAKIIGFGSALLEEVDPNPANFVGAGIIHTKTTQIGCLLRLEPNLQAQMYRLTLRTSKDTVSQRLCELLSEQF
UniProt P35585, sequence (P35585 whole entry, the tested form may be a part): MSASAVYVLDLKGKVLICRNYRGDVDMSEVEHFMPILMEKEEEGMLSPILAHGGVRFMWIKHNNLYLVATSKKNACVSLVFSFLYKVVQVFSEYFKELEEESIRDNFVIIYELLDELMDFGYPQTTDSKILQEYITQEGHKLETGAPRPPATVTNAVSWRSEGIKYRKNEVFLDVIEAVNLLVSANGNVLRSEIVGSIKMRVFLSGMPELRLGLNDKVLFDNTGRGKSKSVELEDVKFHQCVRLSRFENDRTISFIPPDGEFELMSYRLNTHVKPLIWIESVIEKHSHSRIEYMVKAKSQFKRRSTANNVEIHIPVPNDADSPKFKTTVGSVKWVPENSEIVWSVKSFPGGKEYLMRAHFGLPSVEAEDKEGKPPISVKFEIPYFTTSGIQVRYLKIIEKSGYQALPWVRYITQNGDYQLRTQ

beta-galactosidase units [1]: 25.4 units
beta-galactosidase units [2]: 38.6 units
beta-galactosidase units [3]: 102 units
Molecule: beta-adaptin in pGAD424 (two-hybrid activator fusion) (from UniProt P62944 1-937) (natural protein)

beta-galactosidase units [2]: 22.3 units
B1: beta'-adaptin in pGAD424 (two-hybrid activator fusion) (natural protein)
chain: MTDSKYFTTTKKGEIFELKAELNSDKKEKKKEAVKKVIASMTVGKDVSALFPDVVNCMQTDNLELKKLVYLYLMNYAKSQPDMAIMAVNTFVKDCEDPNPLIRALAVRTMGCIRVDKITEYLCEPLRKCLKDEDPYVRKTAAVCVAKLHDINAQLVEDQGFLDTLKDLISDSNPMVVANRVAALSEIAESHPSSNLLDLKAQSINKLLTALNECTEWAQIFILDCLGNYMPKDDREAQSICERVTPRLSHANSAVVLSAVKVLMKFMEMLSKDLDYYATLLKKLAPPLVTLLSAEPEPQYVPLRNINLIVQKRPEILKHEMKVFFVKYNDPIYVKLEKLDIMIRLASQANIAQVLAELKEYATEVDVDFVRKAVRAIGRCAIKVEQSAERCVSTLLDLIQTKVNYVVQEAIVVIKDIFRKYPNKYESVIATLCENLDSLDEPEARAAMIWIVGEYAERIDNADELLESFLDGFHDESTQVQLQLLTAIVKLFLKKPTETQELVQQVLSLATQDSDNPDLRDRGYIYWRLLSTDPVAAKEVVLAEKPLISEETDLIEPTLLDELICYIGTLASVYHKPPNAFVEGGRGVVHKSLPPRTASSESTESPEAAPAGAPASDQPDVIPAQGDLLGDLLNLDLGPPVSGPPLAASSVQMGAVDLLGGGLDSLMGDEPEGIGDSNFGAPPASVAAAAPARLGAPVSSGLSDLFDLTSGVGTLSGSYVAPKAVWLPAMKAKGLEISGTFTRQVGSISMDLQLTNKALQVMTDFAIQFNRNSFGLAPAAPLQVHAPLSPNQTVEISLPLNTVGSVMKMEPLNNLQVAVKNNIDVFYFSTLYPLHVLFVEDGKMDRQMFLATWKDIPNENEAQFQIRDCPLNTEAASSKLQSSNIFTVAKRTVEGQDMLYQSLKLTNGIWVLAELRIQPGNPSFTLSLKCRAPEVSQHDIQAYETILKN
